From US20230212587A1, “Mutant Hydroxyphenylpyruvate Dioxygenase Polypeptide, Encoding Gene Thereof and Use Therefor” (Beijing Dabeinong Biotechnology Co., Ltd., priority 2019, published 2023)
Residue numbers refer to the chain shown, from its start.

B1: F372L (protein, listed as Avena sativa)
chain: MPPTPATATGAAAAAVTPEHAARSFPRVVRVNPRSDRFPVLSFHHVELWCADAASAAGRFSFALGAPLAARSDLSTGNSAHASLLLRSGALAFLFTAPYAPPPQEAATAAATASIPSFSADAARTFAAAHGLAVRSVGVRVADAAEAFRVSVAGGARPAFAPADLGHGFGLAEVELYGDVVLRFVSYPDETDLPFLPGFERVSSPGAVDYGLTRFDHVVGNVPEMAPVIDYMKGFLGFHEFAEFTAEDVGTTESGLNSVVLANNSEAVLLPLNEPVHGTKRRSQIQTYLEYHGGPGVQHIALASNDVLRTLREMRARTPMGGFEFMAPPQAKYYEGVRRIAGDVLSEEQIKECQELGVLVDRDDQGVLLQILTKPVGDRPTFFLEMIQRIGCMEKDEVGQEYQKGGCGGFGKGNFSELFKSIEDYEKSLEVKQSVVAQKS
modifications: AsHPPD Amido Acid Sequence
B2: F372P (protein, listed as Avena sativa)
chain: B1 chain with L372P
modifications: AsHPPD Amido Acid Sequence
B3: F372W (protein, listed as Avena sativa)
chain: B1 chain with L372W
modifications: AsHPPD Amido Acid Sequence
B4: F372S (protein, listed as Avena sativa)
chain: B1 chain with L372S
modifications: AsHPPD Amido Acid Sequence

Tested on: Arabidopsis thaliana T1 plants
Experiment: Topramezone tolerance of transgenic Arabidopsis thaliana T1 plants (pesticide damage grade by bleached leaf area, score, resistance evaluation)
Type: in vivo
Parameters: score: scale not given here
Settings: topramezone 25 g ai/ha (1x); HPPD from Avena sativa source
Summary of the method: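 Eighteen days after sowing, wild-type and HPPD-transgenic T1 Arabidopsis receive a topramezone spray at 1×, 2× or 4× field rate (25–100 g ai/ha) or water. Seven days later each plant is graded by its proportion of bleached leaf area.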

| Molecule | Resistance Grade | score |
| --- | --- | --- |
| B1 | Highly resistant | 0 |
| B2 | Highly resistant | 0 |
| B3 | Poorly resistant | 37 |
| B4 | Highly resistant | 0 |

Same assay, conditions: topramezone 25 g ai/ha (1x); number of plants; HPPD from Avena sativa source

| Molecule | Grade 0 | Grade 1 | Grade 2 | Grade 3 |
| --- | --- | --- | --- | --- |
| B1 | 20 | 0 | 0 | 0 |
| B2 | 20 | 0 | 0 | 0 |
| B3 | 6 | 6 | 8 | 0 |
| B4 | 20 | 0 | 0 | 0 |

Same assay, conditions: topramezone 50 g ai/ha (2x); HPPD from Avena sativa source

| Molecule | Resistance Grade | score |
| --- | --- | --- |
| B1 | Highly resistant | 0 |
| B2 | Highly resistant | 0 |
| B3 | Non-resistant | 100 |
| B4 | Highly resistant | 0 |

Same assay, conditions: topramezone 50 g ai/ha (2x); number of plants; HPPD from Avena sativa source

| Molecule | Grade 0 | Grade 1 | Grade 2 | Grade 3 |
| --- | --- | --- | --- | --- |
| B1 | 20 | 0 | 0 | 0 |
| B2 | 20 | 0 | 0 | 0 |
| B3 | 0 | 0 | 0 | 20 |
| B4 | 20 | 0 | 0 | 0 |

Same assay, conditions: topramezone 100 g ai/ha (4x); HPPD from Avena sativa source

| Molecule | Resistance Grade | score |
| --- | --- | --- |
| B1 | Moderately resistant | 30 |
| B2 | Moderately resistant | 33 |
| B3 | Non-resistant | 100 |
| B4 | Highly resistant | 0 |

Same assay, conditions: topramezone 100 g ai/ha (4x); number of plants; HPPD from Avena sativa source

| Molecule | Grade 0 | Grade 1 | Grade 2 | Grade 3 |
| --- | --- | --- | --- | --- |
| B1 | 6 | 10 | 4 | 0 |
| B2 | 4 | 12 | 4 | 0 |
| B3 | 0 | 0 | 0 | 20 |
| B4 | 20 | 0 | 0 | 0 |
